Earlier results as cited in article PMC2669593.

Target: CaVβ1b (UniProt Q02641)
Sequence of UniProt Q02641 (Q02641 whole entry): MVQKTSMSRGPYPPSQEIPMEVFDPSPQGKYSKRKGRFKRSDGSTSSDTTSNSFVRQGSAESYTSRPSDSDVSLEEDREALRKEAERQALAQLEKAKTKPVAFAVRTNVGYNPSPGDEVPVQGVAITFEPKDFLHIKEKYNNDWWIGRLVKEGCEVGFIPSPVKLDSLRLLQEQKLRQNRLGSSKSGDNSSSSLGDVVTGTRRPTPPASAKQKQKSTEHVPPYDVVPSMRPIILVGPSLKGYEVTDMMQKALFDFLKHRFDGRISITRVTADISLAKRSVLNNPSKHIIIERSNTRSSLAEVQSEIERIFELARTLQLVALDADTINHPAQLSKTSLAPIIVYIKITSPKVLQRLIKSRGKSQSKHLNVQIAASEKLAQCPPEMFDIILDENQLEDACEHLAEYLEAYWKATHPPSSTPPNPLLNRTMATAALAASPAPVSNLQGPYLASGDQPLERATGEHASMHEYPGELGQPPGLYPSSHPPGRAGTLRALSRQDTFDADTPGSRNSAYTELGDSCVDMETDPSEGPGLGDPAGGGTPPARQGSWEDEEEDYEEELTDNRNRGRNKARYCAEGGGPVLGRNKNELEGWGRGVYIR

- Kd: 10 nM
Substance: CaV2.2 I-II linker (from UniProt Q00975)
